Molecular target: the molecule itself
Test: Western blot of conditioned media from transfected HEK293 cells
Protocol: Full length VEGF₁₆₅b or VEGF₁₆₅ (generated by PCR from tissue) was cloned into the expression vector pcDNA₃ using standard methodology, and then transfected into HEK 293 cells and a stable cell line generated using Geneticin selection. Confluent cells were incubated in basal M200 endothelial cell medium for 48 hours, containing neither serum nor Geneticin, and the conditioned media assayed for VEGF concentration using a pan VEGF ELISA(R&D). Control conditioned media (pcDNA3-CM) was collected in the same way from HEK293 cells stably transfected with pcDNA₃. […] VEGF₁₆₅b was the same molecular weight as VEGF₁₆₅, and both isoforms correspond to previously published molecular weights for VEGF₁₆₅ (Ferrara N et al Biophys. Res. Comm. 1989; 161: 851-8). […] This is probably due to the fact that commercially available VEGF₁₆₅ is not glycosylated. There was some VEGF₁₆₅b and VEGF₁₆₅ in the conditioned media that appeared to be de-glycosylated, but this was a small fraction of the total VEGF.

B1: VEGF165b (recombinant, produced by transfected HEK293 cells) (ligand)
chain: APMAEGGGQNHHEVVKFMDVYQRSYCHPIETLVDIFQEYPDEIEYIFKPSCVPLMRCGGCCNDEGLECVPTEESNITMQIMRIKPHQGQHIGEMSFLQHNKCECRPKKDRARQENPCGPCSERRKHLFVQDPQTCKCSCKNTDSRCKARQLELNERTCRSLTRKD
notes: Secreted into conditioned medium of HEK293 cells stably transfected with pcDNA3-VEGF165b; mostly glycosylated (about 23 kDa); also called VEGF165b-CM; new isoform VEGF165b
B1: binds.
